Reference: patent US20230340151A1 (Pfizer, published 2023)
Read-outs that look alike come from different tables or passages of the source.

Experiments:
[1] = biological target: T1, Human GUCY2c on tumor cells (T84, HT55) (human, UniProt P25092 24-1073); assay: cell-based or functional assay
[2] = biological target: T2, Cynomolgus GUCY2C-ECD Cleaved (cynomolgus, UniProt P25092 24-430 (human entry)); assay: direct DELFIA, 60 C
T2 construct: also called CyGUCY2C
T2 chain: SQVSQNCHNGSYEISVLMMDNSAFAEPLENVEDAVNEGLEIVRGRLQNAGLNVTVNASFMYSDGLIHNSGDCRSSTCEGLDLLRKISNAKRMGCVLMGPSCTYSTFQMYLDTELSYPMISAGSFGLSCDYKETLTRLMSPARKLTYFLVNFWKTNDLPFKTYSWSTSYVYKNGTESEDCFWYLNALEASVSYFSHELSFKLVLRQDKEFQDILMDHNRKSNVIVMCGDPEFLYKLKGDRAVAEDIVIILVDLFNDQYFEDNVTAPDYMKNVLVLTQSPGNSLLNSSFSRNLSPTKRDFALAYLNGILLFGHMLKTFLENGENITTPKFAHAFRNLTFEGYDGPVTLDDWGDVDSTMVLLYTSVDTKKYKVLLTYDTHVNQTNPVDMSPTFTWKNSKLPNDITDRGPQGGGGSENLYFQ

Human GUCY2C ECD Cleaved [3] = biological target: T3, Human GUCY2C ECD Cleaved (human, UniProt P25092 24-430); assay: direct DELFIA, 60 C
T3 construct: also called human GUCY2c extracellular domain protein (ECD)

[4] = biological target: T1, Human GUCY2c on tumor cells (T84, HT55); assay: cell-based or functional assay; remark: listed apart in the source
Human CD3 epsilon-delta = biological target: T4, Human CD3 epsilon-delta (human); assay: SPR, CD3 captured by anti-His, 25 C
T4 construct: Single-chain epsilon-linker-delta with His6; also called huCD3
T4 chain: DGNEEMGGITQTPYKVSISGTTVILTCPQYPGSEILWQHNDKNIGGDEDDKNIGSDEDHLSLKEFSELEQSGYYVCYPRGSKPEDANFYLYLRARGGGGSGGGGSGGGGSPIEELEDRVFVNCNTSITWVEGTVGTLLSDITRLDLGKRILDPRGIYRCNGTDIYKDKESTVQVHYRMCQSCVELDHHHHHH

[5] = biological target: T5, Human GUCY2C full length (SEQ ID NO: 224), recombinant protein (human, UniProt P25092 24-430, limits assumed); assay: SPR, anti-human IgG capture, 25 C
T5 construct: also called huGUCY2C; biotinylated human GUCY2c

[6] = biological target: T2, Cynomolgus GUCY2C-ECD Cleaved; assay: direct DELFIA, RT
Human GUCY2C ECD Cleaved [7] = biological target: T3, Human GUCY2C ECD Cleaved; assay: direct DELFIA, RT
Human GUCY2C ECD Cleaved [8] = biological target: T3, Human GUCY2C ECD Cleaved; assay: DELFIA ELISA on coated human GUCY2c
Human GUCY2C ECD Cleaved [9] = biological target: T3, Human GUCY2C ECD Cleaved; assay: SPR, human IgG1
Human GUCY2C ECD Cleaved [10] = biological target: T3, Human GUCY2C ECD Cleaved; assay: SPR, human IgG1 against human GUCY2c ECD
[11] = biological target: T6, Cynomolgus GUCY2C full length on 300.19 cells (cynomolgus, UniProt P25092 24-1073 (human entry)); assay: IHC on cell pellets
T6 construct: also called cyno GUCY2c
T6 chain: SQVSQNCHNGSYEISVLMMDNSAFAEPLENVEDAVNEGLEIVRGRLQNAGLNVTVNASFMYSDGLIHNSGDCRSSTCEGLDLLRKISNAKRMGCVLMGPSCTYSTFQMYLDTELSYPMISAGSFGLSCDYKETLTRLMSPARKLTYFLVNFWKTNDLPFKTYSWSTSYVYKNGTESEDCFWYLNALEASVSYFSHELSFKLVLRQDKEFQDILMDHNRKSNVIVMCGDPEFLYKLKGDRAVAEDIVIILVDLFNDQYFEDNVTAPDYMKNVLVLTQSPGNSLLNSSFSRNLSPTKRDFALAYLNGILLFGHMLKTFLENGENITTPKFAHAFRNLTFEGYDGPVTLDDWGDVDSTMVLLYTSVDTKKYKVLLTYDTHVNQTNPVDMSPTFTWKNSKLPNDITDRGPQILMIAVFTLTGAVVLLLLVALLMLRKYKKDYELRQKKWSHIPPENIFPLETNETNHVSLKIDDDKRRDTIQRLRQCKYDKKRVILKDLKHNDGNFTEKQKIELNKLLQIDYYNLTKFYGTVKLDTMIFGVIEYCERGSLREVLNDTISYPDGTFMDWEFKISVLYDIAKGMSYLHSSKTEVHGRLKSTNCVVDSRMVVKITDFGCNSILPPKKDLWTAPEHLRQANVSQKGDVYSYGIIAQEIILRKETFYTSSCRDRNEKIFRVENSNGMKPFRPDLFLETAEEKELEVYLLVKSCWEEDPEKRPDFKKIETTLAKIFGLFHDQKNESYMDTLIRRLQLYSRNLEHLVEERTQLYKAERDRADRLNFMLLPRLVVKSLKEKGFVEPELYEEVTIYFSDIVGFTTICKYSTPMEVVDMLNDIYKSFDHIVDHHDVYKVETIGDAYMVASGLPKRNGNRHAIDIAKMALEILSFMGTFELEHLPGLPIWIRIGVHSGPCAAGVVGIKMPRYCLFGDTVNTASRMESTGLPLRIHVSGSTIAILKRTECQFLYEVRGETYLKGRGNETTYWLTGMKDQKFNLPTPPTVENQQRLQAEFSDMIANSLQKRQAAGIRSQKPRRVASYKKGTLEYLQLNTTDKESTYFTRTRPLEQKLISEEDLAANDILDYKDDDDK

[12] = biological target: T7, Murine GUCY2C full length on 300.19 cells (mouse, UniProt Q3UWA6 20-1072); assay: IHC on cell pellets
T7 construct: also called mouse GUCY2c

GUCY2C_ECD Peptide 19 = biological target: T8, GUCY2C_ECD Peptide 19 (human); assay: co-crystal structure, 1.6 A
T8 construct: also called GUCY2c peptide 19; GUCY2c-ECD peptide number 19
T8 peptide: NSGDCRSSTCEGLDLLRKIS

T3 sequence (P25092 other isoform, or with tags, fused parts or gaps): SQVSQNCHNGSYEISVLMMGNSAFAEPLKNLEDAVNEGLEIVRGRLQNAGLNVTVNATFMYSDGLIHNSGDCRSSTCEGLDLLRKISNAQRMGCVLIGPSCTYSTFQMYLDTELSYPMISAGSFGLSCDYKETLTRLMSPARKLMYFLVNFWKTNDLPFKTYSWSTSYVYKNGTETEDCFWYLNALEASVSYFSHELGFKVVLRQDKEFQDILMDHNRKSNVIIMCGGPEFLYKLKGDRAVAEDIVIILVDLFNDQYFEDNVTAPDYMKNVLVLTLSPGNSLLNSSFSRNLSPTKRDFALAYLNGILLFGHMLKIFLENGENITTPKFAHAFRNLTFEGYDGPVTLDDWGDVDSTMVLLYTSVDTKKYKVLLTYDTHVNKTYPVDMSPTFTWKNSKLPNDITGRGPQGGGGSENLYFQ
T5 sequence (P25092 24-430 F281L limits assumed): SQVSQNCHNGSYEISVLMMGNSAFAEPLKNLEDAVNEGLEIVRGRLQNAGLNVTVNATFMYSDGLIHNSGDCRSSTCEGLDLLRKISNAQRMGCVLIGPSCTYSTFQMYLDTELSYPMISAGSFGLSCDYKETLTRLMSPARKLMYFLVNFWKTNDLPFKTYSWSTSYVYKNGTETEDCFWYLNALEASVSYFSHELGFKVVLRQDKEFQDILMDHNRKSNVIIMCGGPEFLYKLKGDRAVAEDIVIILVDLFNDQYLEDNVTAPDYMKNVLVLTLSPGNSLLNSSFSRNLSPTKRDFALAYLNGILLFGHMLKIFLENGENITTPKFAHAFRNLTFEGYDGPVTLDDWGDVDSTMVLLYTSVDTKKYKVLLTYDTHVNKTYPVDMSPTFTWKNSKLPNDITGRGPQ
T1 sequence (P25092 24-1073 limits assumed): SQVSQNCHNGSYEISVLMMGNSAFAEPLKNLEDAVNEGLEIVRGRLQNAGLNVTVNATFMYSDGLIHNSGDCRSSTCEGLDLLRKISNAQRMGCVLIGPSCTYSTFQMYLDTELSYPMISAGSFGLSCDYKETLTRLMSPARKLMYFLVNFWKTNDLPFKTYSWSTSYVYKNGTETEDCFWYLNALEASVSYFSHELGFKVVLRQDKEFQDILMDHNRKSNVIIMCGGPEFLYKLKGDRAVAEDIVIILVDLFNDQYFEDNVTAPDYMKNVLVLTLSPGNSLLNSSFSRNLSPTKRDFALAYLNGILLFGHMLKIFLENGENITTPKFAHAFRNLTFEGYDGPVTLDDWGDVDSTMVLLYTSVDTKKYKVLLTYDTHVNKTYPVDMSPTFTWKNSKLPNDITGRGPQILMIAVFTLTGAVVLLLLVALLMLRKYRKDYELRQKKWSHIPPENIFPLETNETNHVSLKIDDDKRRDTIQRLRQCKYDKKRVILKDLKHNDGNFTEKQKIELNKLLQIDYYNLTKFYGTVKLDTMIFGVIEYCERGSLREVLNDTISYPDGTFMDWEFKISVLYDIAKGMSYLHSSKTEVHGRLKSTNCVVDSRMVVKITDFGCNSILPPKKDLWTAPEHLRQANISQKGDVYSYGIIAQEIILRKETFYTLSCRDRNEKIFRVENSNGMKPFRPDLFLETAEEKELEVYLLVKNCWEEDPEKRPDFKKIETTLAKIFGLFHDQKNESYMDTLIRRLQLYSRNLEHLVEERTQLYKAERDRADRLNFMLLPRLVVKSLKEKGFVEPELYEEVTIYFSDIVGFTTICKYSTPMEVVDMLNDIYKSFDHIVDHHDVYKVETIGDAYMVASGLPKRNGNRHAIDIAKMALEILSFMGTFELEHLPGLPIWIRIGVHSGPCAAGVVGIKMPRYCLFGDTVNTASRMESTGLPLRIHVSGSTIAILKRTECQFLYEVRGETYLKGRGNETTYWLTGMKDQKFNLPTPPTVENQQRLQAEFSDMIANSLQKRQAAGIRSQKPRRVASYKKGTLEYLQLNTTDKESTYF

B1: GUCY2C-1478 (bispecific antibody)
chain 1: DIQLTQSPSSLSASVGDRVTITCRASESVDYYGSSLLQWYQQKPGKAPKLLIYAASKLASGVPSRFSGSGSGTDFTLTISSLQPEDFATYYCQQTRKAYTFGQGTKLEIKGGGSGGGGEVQLVESGGGLVQPGGSLRLSCAASGFTFSDYYMTWVRQAPGKGLEWVAFIRNQARGYTSDHNPSVKGRFTISRDNAKNSLYLQMNSLRAEDTAVYYCARDRPSYYVLDYWGQGTTVTVSSGCPPCPAPEAAGAPSVFLFPPKPKDTLMISRTPEVTCVVVDVSHEDPEVKFNWYVDGVEVHNAKTKPREEQYNSTYRVVSVLTVLHQDWLNGKEYKCKVSNKALPAPIEKTISKAKGQPREPQVCTLPPSREEMTKNQVSLWCLVKGFYPSDIAVEWESNGQPENNYKTTPPVLDSDGSFFLYSKLTVDKSRWQQGNVFSCSVMHEALHNHYTQKSLSLSPG
chain 2: DIQMTQSPSSLSASVGDRVTITCTSSQSLFNVRSQKNYLAWYQQKPGKAPKLLIYWASTRESGVPSRFSGSGSGTDFTLTISSLQPEDFATYYCKQSYDLFTFGGGTKVEIKGGGGSGGGGEVQLVESGGGLVQPGGSLRLSCAASGYTFTSYWMHWVRQAPGKGLEWIGEIKPSNGLTNVHEKFKNRFTISVDKAKNSAYLQMNSLRAEDTAVYYCTRTITTTEGYWFFDVWGQGTLVTVSSGCPPCPAPEAAGAPSVFLFPPKPKDTLMISRTPEVTCVVVDVSHEDPEVKFNWYVDGVEVHNAKTKPREEQYNSTYRVVSVLTVLHQDWLNGKEYKCKVSNKALPAPIEKTISKAKGQPREPQVYTLPPCREEMTKNQVSLSCAVKGFYPSDIAVEWESNGQPENNYKTTPPVLDSDGSFFLVSKLTVDKSRWQQGNVFSCSVMHEALHNHYTQKSLSLSPG
notes: CD3-0006
B1 was tested, and the “T84 tumor cell EC50 (T cell cytotoxicity, E:T 5:1)” value [1] was 0.24 nM, the EC50 [2] was 15.7 nM and the EC50 (Human GUCY2C ECD Cleaved [3]) was 19.2 nM. The “T84 tumor cell EC50 (T cell cytotoxicity, E:T 5:1)” value [4] was 0.24 nM, the Kd (Human CD3 epsilon-delta) was 26.9 nM and the koff (Human CD3 epsilon-delta) was 0.00956 s⁻¹. It also gave a kon (Human CD3 epsilon-delta) of 355000 M⁻¹ s⁻¹, a Kd [5] of 3.69 nM and a koff [5] of 0.000434 s⁻¹. It also gave a kon [5] of 118000 M⁻¹ s⁻¹, an EC50 [6] of 4.9 nM and an EC50 (Human GUCY2C ECD Cleaved [7]) of 4.39 nM.

B2: GUCY2C-0118, rabbit chimeric IgG version of GUCY2C-0098 (antibody)
heavy: QVQLQQPGAELVKPGASVKLSCKASGYTFTSYWMHWVKQRPGQGLEWIGEIKPSNGLTNYIEKFKNKATLTVDKSATTAYMQLSSLTAEDSAVYYCTRTITTTEGYWFFDVWGAGTTVTVSSGQPKAPSVFPLAPCCGDTPSSTVTLGCLVKGYLPEPVTVTWNSGTLTNGVRTFPSVRQSSGLYSLSSVVSVTSSSQPVTCNVAHPATNTKVDKTVAPSTCSKPTCPPPELLGGPSVFIFPPKPKDTLMISRTPEVTCVVVDVSQDDPEVQFTWYINNEQVRTARPPLREQQFNSTIRVVSTLPIAHQDWLRGKEFKCKVHNKALPAPIEKTISKARGQPLEPKVYTMGPPREELSSRSVSLTCMINGFYPSDISVEWEKNGKAEDNYKTTPAVLDSDGSYFLYSKLSVPTSEWQRGDVFTCSVMHEALHNHYTQKSISRSPGK
light: DIVLTQSPASLAVSLGQRATISCRASESVDYYGTSLMQWYQQKPGQPPKLLIYAASNVESGVPARFSGSGSGTDFSLNIHPVEEDDIAMYFCQQTRKVYTFGGGTKLEIKGDPVAPTVLIFPPAADQVATGTVTIVCVANKYFPDVTVTWEVDGTTQTTGIENSKTPQNSADCTYNLSSTLTLTSTQYNSHKEYTCRVTQGTTSVVQSFNRGDC
notes: also called Rabbit IgG version of clone 9H3
Binder B2 has an EC50 (Human GUCY2C ECD Cleaved [8]) of 0.25 µg/mL.

B3: GUCY2C-1715 (antibody, human IgG1, V domains shown)
VH: EVQLVESGGGLVQPGGSLRLSCAASGFTFSSYWMHWVRQAPGKGLEWIGEIKPSTKYTNVHEKFKDRFTISVDKAKNSAYLQMNSLRAEDTAVYYCTRTIFTNEGYWFFDVWGQGTLVTVSS
VL: DIQLTQSPSSLSASVGDRVTITCRASESVSIYGSSLMQWYQQKPGKAPKLLIYAASKLASGVPSRFSGSGSGTDFTLTISSLQPEDFATYYCQQTRKAYTFGQGTKLEIK
notes: full human IgG1/kappa
With B3 the “fold improvement of affinity against the parent antibody (GUCY2C-1640)” value (Human GUCY2C ECD Cleaved [9]) was 3.4 fold, the Kd (Human GUCY2C ECD Cleaved [10]) was 4.07 nM and the koff (Human GUCY2C ECD Cleaved [10]) was 0.0011 s⁻¹. For the same binder, the kon (Human GUCY2C ECD Cleaved [10]) was 272000 M⁻¹ s⁻¹.

B4: 9H3 (antibody)
heavy: QVQLQQPGAELVKPGASVKLSCKASGYTFTSYWMHWVKQRPGQGLEWIGEIKPSNGLTNYIEKFKNKATLTVDKSATTAYMQLSSLTAEDSAVYYCTRTITTTEGYWFFDVWGAGTTVTVSSAKTTPPSVYPLAPGSAAQTNSMVTLGCLVKGYFPEPVTVTWNSGSLSSGVHTFPAVLQSDLYTLSSSVTVPSSTWPSETVTCNVAHPASSTKVDKKIVPRDCGCKPCICTVPEVSSVFIFPPKPKDVLTITLTPKVTCVVVDISKDDPEVQFSWFVDDVEVHTAQTQPREEQFNSTFRSVSELPIMHQDWLNGKEFKCRVNSAAFPAPIEKTISKTKGRPKAPQVYTIPPPKEQMAKDKVSLTCMITDFFPEDITVEWQWNGQPAENYKNTQPIMDTDGSYFVYSKLNVQKSNWEAGNTFTCSVLHEGLHNHHTEKSLSHSPGK
light: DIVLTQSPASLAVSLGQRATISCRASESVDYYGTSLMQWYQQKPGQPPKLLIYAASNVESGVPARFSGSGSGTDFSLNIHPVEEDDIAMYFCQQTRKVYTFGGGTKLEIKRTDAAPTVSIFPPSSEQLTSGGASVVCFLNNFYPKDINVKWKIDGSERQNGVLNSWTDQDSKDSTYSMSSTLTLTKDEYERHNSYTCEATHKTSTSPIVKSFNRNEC
notes: Tested as hybridoma antibody; also called GUCY2C-9H3
B4: binds [11]; binds [12].

B5: GUCY2C-1608 scFv (scFv)
scFv: EVQLVESGGGLVQPGGSLRLSCAASGFTFSSYWMHWVRQAPGKGLEWIGEIKPSNELTNVHEKFKDRFTISVDKAKNSAYLQMNSLRAEDTAVYYCTRTITTTEGYWFFDVWGQGTLVTVSSGGGGSGGGGSGGGGSGDIQLTQSPSSLSASVGDRVTITCRASESVDYYGSSLLQWYQQKPGKAPKLLIYAASKLASGVPSRFSGSGSGTDFTLTISSLQPEDFATYYCQQTRKAYTFGQGTKLEIKTGSENLYFQ
B5: binds (GUCY2C_ECD Peptide 19).
